Experiment: label from the status in PepcDB records
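Further: failed if final PepcDB status was selected cloned or expressed and not failed if soluble or beyond.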

Sequence | protein production
DHPEEGDTAPDFTRPLVNDEFWEDESLASVCADSDRVVLVFHAMDGAFPATYIWNEIRDRAWHEQATVVGISISTPYEHKQLLKEREIEGDYRLFSDPANGVAQQYSIDMALDGMAGIEEPRPSVFVLDSDRTIEYAWVAQEWPDFPDYDDVEAQL | failed
DIDTFYSKVHNIIGQLINAKNFFIAKYEKDSDTLSFSYYVDEKTSNLAKDFKPRKLSNRYSELVLRRRETVLLTYQEMMSLHLEGETKKPQDDIHSWLGVPLIYSGQLLGVMVLQSYYYKTTYNQQDAELLNFVSNHVSAAIKRRELAD | failed
DIQVITQTGVPGQPLNFKAEPESETSILLSWTPPRSDTIANYELVYKDGEHGEEQRITIEPGTSYRLQGLKPNSLYYFRLAARSPQGLGASTAEISARTMQS | not failed
DKDNTDEPKETAKALGKLASESKKEILLESAYLIFDDNQLKGWQALINTGVEIKALTNSMASNDLTTNHSGYAGRRQDMLEHGIQLYELKPETELCEESTKDVSKCAPILPYGLHAKSAVFDDKIASIGSFNFNLRSTYLNTESILIIENQKIAEQLTQDIEHAMDEENSWHLKLQEGDVRWYSGDKSWESEPETGRWERFQSGFLQLLPIE | failed
DLLDPETWQFIRDSARHFPPDSDRLPLAEQRALHAGLCRAFRAPLPPDVTLTDRTFGTRPCRLYEPAAPAGTVLFLHGGGFVLGGLDAFDDLCAEIAAGTGLRTVAVDYRLAPEYPHPEDFHDALRAAQAVAQAFPGPLVLMGEDAGGALSASFAHALRGRRALAGQVLVCPMLGGALDRVSALTHATAPMLSRQDVLRMGALRHGGREPAADPTADALRDTDFRGLPPTLIVTAQCDPLTDDGRAYRDAIRAAAGRARWIEEPGLVHGFLRARHRVPRAAASFARILQAASAMAHDR | failed
DLNLPIYPVKGYSLTLPVTNSDGAPVSTVLDESYKVAITRFDNRIRVGGMAELSGYEIKLPEKRRETLALVVNDLFPEGGDLSQASFWSGLRPMTPDSTPLIGRTRFDN | failed
DNKKIILEFSSPNTNKPLHVGHLRNDVIGESLSRILKAVGAKITKINLINDRGVHICKSMLAYKKFGNGITPEKAFKKGDHLIGDFYVKYNKYSQENENAEKEIQDLLLLWEQKDVSTIELWKKLNKWAIEGIKETYEITNTSFDKIYLESEIFKIGKNVVLEGLEKGFCYKREDGAICIDLPSDSDEKADTKVKQKVLIRSNGTSIYLTQDLGNIAVRTKEFNFEEMIYVVGSEQIQHFKSLFFVAEKLGLSKNKKLIHLSHGMVNLVDGKMKSREGNVIDADNLISNLIELIIPEMTQKIENKESAKKNALNIALGAIHYYLLKSAIHKDIVFNKKESLSFTGNSGPYIQYV | failed
DPKEGVQYEVLSTSLENDGMAPVTEVFALSCGHCRNMENFLPVISQEAGTDIGKMHITFNQSAHIASMFYYAAEMQVDGAPDHAFMEDLFAATQMGEGTTLTEQQEAYSKAFTSRGLVSPYDFNEEQRDTLIKKVDNAKMLSEKSGISSVPTFVVNGKYNVLIGGHDDPKQIADTIRYLLEK | not failed
DQEVRLENRITFQLELVGLERVVRISAKPTKRLQEALQPILAKHGLSLDQVVLHRPGEKQPMDLENPVSSVASQTLVLDTPPDAKMSEARS | not failed
DRSRLQCYSEDVTEYRKMEQGLNDLHHRLQAYREYSATGFLLVDARTKTVVEANSAFCQLLGYEESEVLDFTLYQLIAAERPVIEELLINLETQNYLSVPELEYRNREGQTVQVKGEVYRLPWEDREVYCFVMRT | failed
DSASQAEQFLKLVHADKLTVPVYAQVQQMLAQRFAQAKAPESKKAVLERYQAKANAELDRAIGWDKIKPELIKLYTTNFTESELKDLNAFYQSPLGKKVLEKMPRLTAESAQLTQAKLQGAVEPVNKLMADMDKELGVAAPAQKKK | not failed
DSFKNLENKYDGKIGIYTLNTDDKTNIKYNESYHFPICSVFKFLLVGAILDYDMHNQGFLDKKIPINQDDIGKLGYAPITAKNVGKTLTISQLNYAAILSDSPASNILVRELGGLQNLNKFIKKLGDNDTIITADEPEINYTQPHSNINKTTPKAITKDIYKLAFGNILDKKHKDIFIKYLQDNNTGANRIAFSMPKDWIIGDKTGTCGQYAATNDVAIIWPKNQQPIALGILYTNPNDKNAPSNEEIIQQAAKLIANDLTNTYK | not failed
DSTGKTKTAYDFSAGGISPDAPLVVLFHGLEGSSRSHYAVELMLAVRNRGWHGAVVHFRSCGGVANTAPVFYHLGDTAEIAFALDTLTARYREIYAVGVSLGGNAPAKYLGEQGKKALPHASAAVSAPVDAEAAGSRFDSGITRLLYTRYFLRTLIPKARSLQGFQTAFAAGCKTLGEFDDRFTAPLHGFADRHDYYRQTSCKPLLKHVAKPLLLLNAANDPFLPPEALPRADEASEAVTLFQPAHGGHAGFVSST | failed
DVDIQLVSSNNINDYLHVYDAFARPFGDSYANMVKQHIYSSYNLDDIERLVAYVNHQPVGIVDIIMTDKTIEIDGFGVLEEFQHQGIGSEIQAYVGRMANERPVILVADGKDTAKDMYLRQGYVYQGF | failed
DYQKEYERKLISPEEAANLVKDGMHIEIGGSANTALIIDKYLAKRKDELSHVEVGTFIDIAHYEFLKADPEQEKIKWESCFLYEPVRKCSKELGPCVHRPGVLSDAGYIAKELGGVLKGGKKYTDIAFLVTTPMDRHGFFNFGVTCTFLKSIAEGAEKVVVVVKKDMPWVNGGYDECIHISEVDYIVEDNEFPTPFLPFLPPPSKEDEMIAENIMEAGLIENGSTLQVGIGGLPNTVVRMLKEAGLKDLGIHTEMMGDGLMELMEEGIVTNQNKKLDRGKAVFSFALGTRKLYDFLDRNPEVATYPVEYTNNPFVVAQQPKMFSLNQVAQIDLMGQINSGQIGLTSPSGKIFQISGTGGQLDFVLGCFYSFDRQGKSVLATYSTYNGTSRIIPALPTGAGVTVPRSVVQYVATEWGIAYLRGLPIYKRAAAMIQLAHPDHRDWLEEEARKLGILPPKYSIPAGKADGVIYRRD | failed
EAGEITFTEWCQGAVDMWRANDITRSDITRATRALKPKAGAVDLLAHLQQTDIRFGILSAGVANLAARFEPYEPAFVRGNWLQFEDRRVSAIDIGVGPNEKGELLRKIRSKQNPVSITYIGDSHTDTEAFIEADTAVLFDPDERVPETAIDAADTIIESADIAEVQNCIPTA | failed
EAHRVLFGFVPETKEELQVMPGNIVFVLKKGNDNWATVMFNGQKGLVPCNYLEPV | not failed

Sequence | protein production
EDAWMGTHPKYLEMMELDIGDATQVYVAFLVYLDLMESKSWHEVNCVGLPELQLICLVGTEIEGEGLQTVVPTPITASLSHNRIREILKASRKLQGDPDLPMSFTLAIVESDSTIVYYKLTD | not failed
EDDKLKSVEALRQKGNELFVQKDYKEAIDAYRDALTRLDTLILREKPGEPEWVELDRKNIPLYANMSQCYLNIGDLHEAEETSSEVLKREETNEKALFRRAKARIAAWKLDEAEEDLKLLLRNHPAAASVVAREMKIVTERRAEKKADSRVTYSKMFQP | not failed
EDSLATVKVVLIPVGQEIVIPFKVDTILKYLKDHFSHLLGIPHSVLQIRYSGKILKNNETLVQHGVKPQEIVQVEIFSTNPDLYPVRR | failed
EDVEFVRLNVSDLLTDPELAQSIFSLLVSAHYQTSPNDWLALLSDPSLFCWAGIDKSSRNVLTCALVSLEGQLDNELIADIQVGKRRPRGHLVPVSLTQTLCINEPAQQSCIRIMRIAVEQHYQRMHLGSKFIEYIKAFYCDLGIDYLSTSFGSTPGLNEFWLSLDF | failed
EDVSWIKPGQVSWEWWNGATPYGQDVTFKAGCNLETYKYFIDFASKFGIPYIIMDEGWAKSTRDPYTPNPDVDLHELIRYGKEKNVGIVLWLTWLTVEKNFDLFKTFNEWGIKGVKIDFMDRSDQWMVNYYERVAQEAARHHLFVDFHGSFKPAGLEYKYPNVLSYEGVRGMEQMGGCKPENSIYLPFMRNAVGPMDYTPGAMISMQPNIYRSERPNSASIGTRAYQMALFVIFESGLQMLADNPTLYYRNEDCTRFITQVPVTWDET | failed
EEHRGEEILAVFDTAFGQLLAADPAAFRVKFRKMAASAFAFYRGTAGLFYRDLTEDPDFGDQHGGAYLDERTSRVWIHGDLHAENFGTYMDSTGRLIFNVNDFDEAYVGPFTWDLKRFAASVALIGYAKAFSDEQITELVRVY | failed
EELEYKGMNTLQISNVDDLISFYQYADDRIPLISGHRGGRGKGYPENSMETFENTLSYTPATFEIDPRLTKDSVIVLFHDDTLERTSNGTGKVSDYTWEELQNFRLKDPEGNITNYRIPTLEEAIRWARGKTILILDKKDVPMERTAQLITDMQAEPYVMITVHDGASARFFYEKNPNFMFEAFVKTKEAVQDYEDNGIPWSHIMAYVGPKITPEVREVIDMLHERGVMCMISTAPSDDKLSTPESRAEAYRMIIRQGVDIIESDRPIEVAEAISSLIPVSSSKGKFFSTL | not failed
EENPRGRFAITLPHSLESNVVMPAIEQLCIEYPGIEPEIIVSDSSLDLVENNLDVAIHAGDLPDSSYRALPIGTITEIFCATPLYLNKNFTPQKLSDLAQLKWI | failed
EHFNDMIEKRVKSEIRNQVDLKKPMVRISVAISGGKDSSVTLYLLHKILSKRRNVELTAFTVDEGISGYRPAGLESAIKLTKMLGVDHSIIRFQDSFGMTLDSIVGADASRIPCSYCGPLRRKLINEMAERQNADYVALGLNLDDYSQSILMNVAKGDYDRLLRMSPQKEAKDGLVRRIAPLRSVLEKEVVLYAVINGIPFDSSWC | failed
EHGLLVHKAVDKWTTEEVVLWLEQLGPWASLYRDRFLSERVNGRLLLTLTEEEFSRAPYTIENSSHRRVILTELERVR | not failed
EKMTRDEIAYMLTNSEETLDADEIEMLQGVFSLDELMAREVMVPRTDAFMVDIQDDSQAIIQSILKQNYSRIPVYDGDKDNVIGIIHTKSLLKAGFVDGFDNIVWKRILQDPLFVPETIFVDDLLKELRNTQRQMAILLDEYGGMAGLVTLEDLLEEIVGEID | not failed
ELPSVEELTIILPEDIELKPLGMVSSIIEQLVIIESMTNLPPVNEETVIFKSDRQAAGKIFEIFGPVAHPFYVLRFNSSDHIESKGIKIKETMYFA | not failed
EMRKFLVVLDDSRECLNAMRFAAMRAAHTGGGVAILSIIPPDEFNHWIGVGEVMREEARERIHAHFEVFAKWMRDKQGVEPELVIREGEAVPEIIAHVQEDPEIGVLVLGAGTDKKGPGPLVSQLSRSSGSLPIPITIVPGDLSKE | failed
ENGRYEYIVIGSEAAGVGLVRELTAAGKKVLAVDKSKEKIELLEDEGFDAVIADPTDESFYRSLDLEGVSAVLITGSDDEFNLKILKALRSVSDVYAIVRVSSPKKKEEFEEAGANLVVLVADAVKQAFMDKIKKMETL | not failed
EPLTIREYRPEDLEALLPLYEQLGYPTRTDELRDRLAGLLSHEDYHLLVAECDGQLVAFIGYARMYFFEHDGSYYRILALAVS | failed
EPPDGVRIVPVTDRAGVDLVADVHEKAFGTDSTRMRHQLLAQVTDDPDAVVAVVALAGDEPVSAARMELVPGTRFAGLWGGGTVEGERGRGIYRALVAHRAKVAADRGYRYVQVDATSQSRPVLARLGFEPLTTTTPYVS | failed
EQTTAADLPLTLAIAREVGNLLLTDSLLAETNRHLNQLNALLESMDDGVISWDEQGNLQFINAQAARVLRLDATASQGRAITELLTLPAVLQQAIKLAHPLKHVEATFESQHQFIDAVITLKPIIETQGTSFILLLHP | failed

Source: a protein production outcome set (Wang et al. 2014)
